Assay results as given in article PMC11187062, “Structure of human DPPA3 bound to the UHRF1 PHD finger reveals its functional and structural differences from mouse DPPA3” (Communications Biology, 2024).
Changes are numbered by the printed parent chain. Names and notes keep the numbering of the source. Values joined by “and” are separate entries in the source; they are usually repeats but may differ in a detail not shown here. Equal entries are not always repeated. One block for each binder: values may come before it.

Legend:
Conditions in all cases: both partners purified
[1] = molecular target: T1, human UHRF1 PHD finger (residues 299-366) (human, UniProt Q96T88 299-366); test: ITC; Microcal PEAQ-ITC, 293 K, 10 mM HEPES pH 7.5, 150 mM NaCl, 0.25 mM TCEP; one-site model; n = 3
T1 construct: UHRF1 (ubiquitin-like PHD and RING finger domain-containing protein 1), human, PHD finger, residues 299-366; also called hPHD; hUHRF1 PHD finger; source: E. coli, expressed as a GST-fusion protein, purified (glutathione Sepharose 4B, HiTrap Q, Superdex 75)
T1 sequence (looked up): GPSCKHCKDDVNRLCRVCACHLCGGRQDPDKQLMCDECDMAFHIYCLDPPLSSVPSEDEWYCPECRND

[2] = molecular target: T2, human UHRF1 PHD finger, residues 299–366 (human, UniProt Q96T88 299-366); test: ITC; Microcal PEAQ-ITC, 293 K, 10 mM HEPES pH 7.5, 150 mM NaCl, 0.25 mM TCEP; one-site model; at least three independent titrations
T2 construct: UHRF1 (ubiquitin-like PHD and RING finger domain-containing protein 1), human, PHD finger, residues 299-366; 15N- or 13C,15N-labelled for NMR; also called hPHD; hUHRF1 PHD finger; source: E. coli, expressed as a GST-fusion protein, purified (glutathione Sepharose 4B, HiTrap Q, Superdex 75)
T2 sequence (looked up): T1 sequence (looked up)

hPHD M332A = molecular target: T3, hPHD M332A (human, UniProt Q96T88 299-366, M332A); test: as above
T3 construct: UHRF1, human, PHD finger, residues 299-366; also called M332A hPHD mutation; source: E. coli, site-directed mutant of hPHD; purification of the hPHD mutants not described separately
T3 sequence (looked up): T1 sequence (looked up) with M34A

[3] = molecular target: T2, human UHRF1 PHD finger, residues 299–366; test: SEC-SAXS; 12 mg/ml hPHD:hDPPA3_(81-118) complex on Superdex 200 Increase 5/150 GL, 20 mM Tris-HCl pH 7.5, 150 mM NaCl, 2 mM DTT, 10 µM zinc acetate, 5% glycerol, 20 °C
[4] = molecular target: T4, human UHRF1 PHD finger, residues 299-366 (human, UniProt Q96T88 299-366); test: ITC; Microcal PEAQ-ITC, 293 K, 10 mM HEPES pH 7.5, 150 mM NaCl, 0.25 mM TCEP, one-site model; which partner was titrated is not stated; single titrations and their means
T4 construct: UHRF1 (ubiquitin-like PHD and RING finger domain-containing protein 1), human, PHD finger, residues 299-366; also called hPHD; hUHRF1 PHD finger; source: E. coli, expressed as a GST-fusion protein, purified (glutathione Sepharose 4B, HiTrap Q, Superdex 75)
T4 sequence (looked up): T1 sequence (looked up)

[5] = molecular target: T5, human UHRF1 PHD finger, residues 299-366, M332A (human, UniProt Q96T88 299-366, M332A); test: as above
T5 construct: UHRF1, human, PHD finger, residues 299-366, with M332A; also called hPHD M332A; source: E. coli, expressed as a GST-fusion protein, purified
T5 sequence (looked up): T1 sequence (looked up) with M34A

[6] = molecular target: T1, human UHRF1 PHD finger (residues …); test: ITC; Microcal PEAQ-ITC, 293 K, 10 mM HEPES pH 7.5, 150 mM NaCl, 0.25 mM TCEP; one-site model; n = 3; remark: listed apart in the source
[7] = molecular target: T4, human UHRF1 PHD finger, residues 299-366; test: ITC; Microcal PEAQ-ITC, 293 K, 10 mM HEPES pH 7.5, 150 mM NaCl, 0.25 mM TCEP, one-site model; which partner was titrated is not stated; single titrations and their means; remark: listed apart in the source

B1: K95P substituted hDPPA3_(81-118) (peptide, UniProt Q6W0C5 81-118, looked up)
chain: SRRGVRTLLSVQREPMARLRYMLLGGVRTHERRPTNKE
notes: also called K95P mutant of hDPPA3; source: bought: Toray Research Center (Tokyo, Japan)
Kd [1]: 1260 nM

B2: human DPPA3, residues 81–118 (recombinant) (domain or fragment)
chain: B1 chain with P15K
notes: Used for SAXS, NMR, CD, ITC and ubiquitination experiments; also called hDPPA3; source: E. coli BL21 (DE3), His-Ub fusion, purified (Ni Sepharose, YUH1 cleavage, HiTrap SP, Superdex 75)
Kd [2]: 868 nM
Kd (hPHD M332A): 8070 nM
stoichiometry N [3]: 1

B3: human DPPA3, residues 81-118 (domain or fragment)
chain: B1 chain with P15K
notes: also called hDPPA3 WT; source: E. coli BL21 (DE3), His-Ub fusion, purified (Ni Sepharose, YUH1 cleavage, HiTrap SP, Superdex 75)
Kd [4]: 918 nM and 804 nM and 921 nM and 831 nM
Kd [5]: 9490 nM and 6150 nM and 8570 nM

B7: hDPPA3_(81-118) R86A (domain or fragment, human, UniProt Q6W0C5 81-118, looked up)
chain: B1 chain with R6A, P15K
notes: source: E. coli BL21 (DE3), His-Ub fusion, purified by the same protocol as the wild type
Kd [2]: 20000 nM

B12: hDPPA3_(81-118) R93P/A97P (domain or fragment, human, UniProt Q6W0C5 81-118, looked up)
chain: B1 chain with R13P, P15K, A17P
notes: as for B7
Kd [2]: 9390 nM

B13: human DPPA3, residues 81-118, R93P/A97P (domain or fragment, UniProt Q6W0C5 81-118, looked up)
chain: B1 chain with R13P, P15K, A17P
notes: also called hDPPA3_mutant4_R93PA97P; source: E. coli BL21 (DE3), His-Ub fusion, purified by the same protocol as the wild type
Kd [7]: 11200 nM and 9620 nM and 7360 nM

The remaining lines, values ahead:

Kd [6]: 352 nM
B4: hDPPA3 residues 81-118, R98A/M102A (peptide, UniProt Q6W0C5 81-118, looked up)
chain: B1 chain with P15K, R18A, M22A
notes: source: E. coli BL21 (DE3), purified (Ni Sepharose, His-Ub removed by YUH1, HiTrap SP, Superdex 75)

Kd [2]: 16500 nM
B5: hDPPA3_(81-118) T87A (domain or fragment, human, UniProt Q6W0C5 81-118, looked up)
chain: B1 chain with T7A, P15K
notes: as for B7

Kd [7]: 639 nM and 460 nM and 552 nM
B6: human DPPA3, residues 81-118, R98A/M102A (domain or fragment, UniProt Q6W0C5 81-118, looked up)
chain: B1 chain with P15K, R18A, M22A
notes: also called hDPPA3_mutant1_R98AM102A; source: E. coli BL21 (DE3), His-Ub fusion, purified by the same protocol as the wild type

Kd [7]: 2890 nM and 1670 nM and 1870 nM
B8: human DPPA3, residues 81-118, L88A/V91A (domain or fragment, UniProt Q6W0C5 81-118, looked up)
chain: B1 chain with L8A, V11A, P15K
notes: DPPA3, human, with L88A and V91A; named only in the sheet; also called hDPPA3_mutant2_L88AV91A

Kd [6]: 550 nM
B9: hDPPA3 residues 81-118, M96A/L99A (peptide, UniProt Q6W0C5 81-118, looked up)
chain: B1 chain with P15K, M16A, L19A
notes: as for B4

Kd [7]: 355 nM and 347 nM
B10: human DPPA3, residues 81-118, M96A/L99A (domain or fragment, UniProt Q6W0C5 81-118, looked up)
chain: B1 chain with P15K, M16A, L19A
notes: also called hDPPA3_mutant3_M96AL99A; source: E. coli BL21 (DE3), His-Ub fusion, purified by the same protocol as the wild type

Kd [2]: > 85000 nM
B11: hDPPA3_(81-118) R86A/T87A (domain or fragment, human, UniProt Q6W0C5 81-118, looked up)
chain: B1 chain with R6A, T7A, P15K
notes: as for B7
